Assays:
Human recombinant CD38 = Human recombinant CD38 (human, UniProt P28907 43-300, limits assumed); assay: cell-based or functional assay
[1] = biological target: T1, HA-CD38 (N-terminal HA tag, extracellular domain of human CD38), wild type (human, UniProt P28907 45-300); assay: ELISA, HA-CD38 captured by anti-HA antibody
T1 construct: Used as culture supernatant of HEK-293F cells, captured by anti-HA antibody; also called wild type (WT) CD38; pEE13.4HACD38

[2] = biological target: T2, human CD38 on CD38-transfected CHO cells (CHO-CD38 cells) (human, UniProt P28907 1-300); assay: flow cytometry on CHO-CD38 cells, anti-human IgG-FITC
T2 construct: The construct used to transfect the CHO cells is not described; also called CHO cells transfected with CD38; cellular expressed CD38

CD38 on Daudi-luc cells = biological target: T3, CD38 on Daudi-luc cells (UniProt P28907 1-300); assay: flow cytometry on Daudi-luc cells, anti-human IgG-FITC
T3 construct: whole, on cells; also called Daudi cells

Molecule | pmol cADPR/min (reverse cyclase reaction) (pmol cADPR/min) (Human recombinant CD38) | binding result [1] | binding result [2] | binding result (CD38 on Daudi-luc cells) | IC50 of inhibition of NAADP production (base-exchange activity, HPLC) (Human recombinant CD38)
HuMab-KLH (antibody) | 4.3 |  |  |  | 
anti-CD38 antibody 025 (antibody, human IgG1, V domains shown) VH: QVQLVQSGAEVKKPGSSVKVSCKAFGGTFSSYAISWVRQAPGQGLEWMGRIIRFLGKANHAQKFQGRVTLTADKSTNTAYMELSSLRSEDTAVYYCAGEPGDRDPDAVDIWGQGTMVTVSS VL: DIQMTQSPSSLSASVGDRVTITCRASQGIRSWLAWYQQKPEKAPKSLIYAASSLQSGVPSRFSGSGSGTDFTLTISSLQPEDFATYYCQQYNSYPLTFGGGTKVEIK |  | binds | binds | binds | 
anti-CD38 antibody 056 (antibody, human IgG1, V domains shown) VH: QVQLVQSGAEVKKPGSSVKVSCKPSGGTFRSYAISWVRQAPGQGLEWMGRIIVFLGKVNYAQRFQGRVTLTADKSTTTAYMELSSLRSEDTAVYYCTGEPGARDPDAFDIWGQGTMVTVSS VL: DIQMTQSPSSLSASVGDRVTITCRASQGIRSWLAWYQQKPEKAPKSLIYAASSLQSGVPSRFSGSGSGTDFTLTISSLQPEDFATYYCQQYNNYPLTFGGGTKVEIK |  |  | binds | binds | 
anti-CD38 antibody 026 (antibody, human IgG1, V domains shown, also called -057) VH: QVQLVQSGAEVKKPGSSVKVSCKAFGGTFSSYAISWVRQAPGQGLEWMGRIIRFLGKTNHAQKFQGRVTLTADKSTNTAYMELSSLRSEDTAVYYCAGEPGDRDPDAVDIWGQGTMVTVSS VL: DIQMTQSPSSLSASVGDRVTITCRASQGIRSWLAWYQQKPEKAPKSLIYAASSLQSGVPSRFSGSGSGTDFTLTISSLQPEDFATYYCQQYNSYPLTFGGGTKVEIK |  | binds | binds | binds | 
anti-CD38 antibody 028 (antibody, human IgG1, V domains shown) VH: QVQLVQSGAEVKKPGSSVKVSCKAFGGTFSSYAISWVRQAPGQGLEWMGRIIRFLGIANYAQKFQGRVTLIADKSTNTAYMELSSLRSEDTAVYYCAGEPGERDPDAVDIWGQGTMVTVSS VL: DIQMTQSPSSLSASVGDRVTITCRASQGIRSWLAWYQQKPEKAPKSLIYAASSLQSGVPSRFSGSGSGTDFTLTISSLQPEDFATYYCQQYNSYPLTFGGGTKVEIK |  |  |  |  | 0.14 µg/mL
anti-CD38 antibody 049 (antibody, human IgG1, V domains shown) VH: QVQLVQSGAEVMKPGSSVKVSCKASGGTFRSYAISWVRQAPGQGLEWMGRIIVFLGKTNYAQKFQGRVTLTADKSTTTAYMELSSLRSEDTAVYYCTGEPGARDPDAFDIWGQGTMVTVSS VL: DIQMTQSPSSLSASVGDRVTITCRASQGIRSWLAWYQQKPEKAPKSLIYAASSLQSGVPSRFSGSGSGTDFTLTISSLQPEDFATYYCQQYNNYPLTFGGGTKVEIK |  | binds | binds | binds | 

From patent US20130209355A1 (Genmab, published 2013)
